Test results reported in article PMC9970071.

Columns and labels:
[1] = target: Full-length TBEV C protein (residues 1-96), Kuutsalo-14 strain (tick-borne encephalitis virus (TBEV-Eu), strain Kuutsalo-14); assay: SEC
[2] = target: Truncated TBEV C protein C_(18-93), containing residues 18-93, Kuutsalo-14 strain (tick-borne encephalitis virus (TBEV-Eu), strain Kuutsalo-14); assay: SEC

Row | Substance | stoichiometry N [1] | stoichiometry N [2]
1 | Full-length TBEV C protein (residues 1-96), Kuutsalo-14 strain (natural protein) | 2 | –
2 | Truncated TBEV C protein C_(18-93), containing residues 18-93, Kuutsalo-14 strain (domain or fragment) | – | 2
